# Laboratory results: publication PMC3079231 (International journal of mass spectrometry, 2011)
# Residue numbers refer to the chain shown, from its start. In names and notes the source's numbering stands.
# B1: Salmonella typhimurium AhpC T77I mutant (enzyme)
# chain: SLINTKIKPFKNQAFKNGEFIEVTEKDTEGRWSVFFFYPADFTFVCPTELGDVADHYEELQKLGVDVYSVSTDTHFIHKAWHSSSETIAKIKYAMIGDPTGALTRNFDNMREDEGLADRATFVVDPQGIIQAIEVTAEGIGRDASDLLRKIKAAQYVAAHPGEVCPAKWKEGEATLAPSLDLVGKI
# modifications: oxidized form: intersubunit disulfide (Cys-46 to Cys-165); reduced form (TCEP): free thiols
# B2: Salmonella typhimurium AhpC T77V mutant (enzyme)
# chain: B1 chain with I77V
# modifications: oxidized form: intersubunit disulfide (Cys-46 to Cys-165); reduced form (TCEP): free thiols
# Biological target: the molecule itself
# Assay: HDX-MS
row,Protein,binding result
1,B1,binds
2,B2,binds
